Measured values reported in IntAct's records for PubMed 26836588.

B1: E3 ubiquitin-protein ligase TRIM22 (Homo sapiens), Q8IYM9 (parent)
chain: MDFSVKVDIEKEVTCPICLELLTEPLSLDCGHSFCQACITAKIKESVIISRGESSCPVCQTRFQPGNLRPNRHLANIVERVKEVKMSPQEGQKRDVCEHHGKKLQIFCKEDGKVICWVCELSQEHQGHQTFRINEVVKECQEKLQVALQRLIKEDQEAEKLEDDIRQERTAWKNYIQIERQKILKGFNEMRVILDNEEQRELQKLEEGEVNVLDNLAAATDQLVQQRQDASTLISDLQRRLRGSSVEMLQDVIDVMKRSESWTLKKPKSVSKKLKSVFRVPDLSGMLQVLKELTDVQYYWVDVMLNPGSATSNVAISVDQRQVKTVRTCTFKNSNPCDFSAFGVFGCQYFSSGKYYWEVDVSGKIAWILGVHSKISSLNKRKSSGFAFDPSVNYSKVYSRYRPQYGYWVIGLQNTCEYNAFEDSSSSDPKVLTLFMAVPPCRIGVFLDYEAGIVSFFNVTNHGALIYKFSGCRFSRPAYPYFNPWNCLVPMTVCPPSS

Variants of: B1
Settings: with nod2_human NOD2, Q9HC29
nod2_human NOD2, Q9HC29, sequence (Q9HC29 whole entry): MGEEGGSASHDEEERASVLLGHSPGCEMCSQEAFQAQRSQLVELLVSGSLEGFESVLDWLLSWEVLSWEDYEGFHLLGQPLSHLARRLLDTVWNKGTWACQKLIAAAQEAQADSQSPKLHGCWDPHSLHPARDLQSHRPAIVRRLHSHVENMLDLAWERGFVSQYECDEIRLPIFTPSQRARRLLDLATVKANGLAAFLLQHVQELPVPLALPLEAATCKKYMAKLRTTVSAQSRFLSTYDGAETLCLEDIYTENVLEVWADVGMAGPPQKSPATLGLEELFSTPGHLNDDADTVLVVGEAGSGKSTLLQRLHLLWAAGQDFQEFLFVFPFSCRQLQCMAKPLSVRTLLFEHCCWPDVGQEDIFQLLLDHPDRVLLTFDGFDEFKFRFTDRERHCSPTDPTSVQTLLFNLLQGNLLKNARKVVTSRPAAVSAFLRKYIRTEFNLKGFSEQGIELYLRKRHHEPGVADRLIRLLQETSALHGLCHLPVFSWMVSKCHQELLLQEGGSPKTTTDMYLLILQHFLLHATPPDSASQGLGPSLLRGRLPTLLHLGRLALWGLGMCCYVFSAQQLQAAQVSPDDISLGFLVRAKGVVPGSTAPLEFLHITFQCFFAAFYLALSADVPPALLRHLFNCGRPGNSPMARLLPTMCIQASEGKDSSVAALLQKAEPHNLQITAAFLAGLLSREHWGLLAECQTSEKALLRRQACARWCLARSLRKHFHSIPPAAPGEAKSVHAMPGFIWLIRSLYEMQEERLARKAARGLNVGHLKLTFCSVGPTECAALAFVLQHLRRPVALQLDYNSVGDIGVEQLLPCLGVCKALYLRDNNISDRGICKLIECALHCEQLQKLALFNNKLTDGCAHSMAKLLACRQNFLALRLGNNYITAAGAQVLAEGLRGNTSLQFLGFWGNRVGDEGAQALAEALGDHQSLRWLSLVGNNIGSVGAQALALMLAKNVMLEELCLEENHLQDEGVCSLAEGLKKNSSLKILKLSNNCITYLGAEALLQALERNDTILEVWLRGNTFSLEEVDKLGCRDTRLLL

effect of a mutation on the interaction	Variant
disrupting interaction strength	R442C
with no effect	R150T
decreasing interaction strength	R321K
decreasing interaction strength	S244L
